B1: Speckle-type POZ protein (Homo sapiens), O43791 (parent)
chain: MSRVPSPPPPAEMSSGPVAESWCYTQIKVVKFSYMWTINNFSFCREEMGEVIKSSTFSSGANDKLKWCLRVNPKGLDEESKDYLSLYLLLVSCPKSEVRAKFKFSILNAKGEETKAMESQRAYRFVQGKDWGFKKFIRRDFLLDEANGLLPDDKLTLFCEVSVVQDSVNISGQNTMNMVKVPECRLADELGGLWENSRFTDCCLCVAGQEFQAHKAILAARSPVFSAMFEHEMEESKKNRVEINDVEPEVFKEMMCFIYTGKAPNLDKMADDLLAAADKYALERLKVMCEDALCSNLSVENAAEILILADLHSADQLKTQAVDFINYHASDVLETSGWKSMVVSHPHLVAEAYRSLASAQCPFLGPPRKRLKQS
partner: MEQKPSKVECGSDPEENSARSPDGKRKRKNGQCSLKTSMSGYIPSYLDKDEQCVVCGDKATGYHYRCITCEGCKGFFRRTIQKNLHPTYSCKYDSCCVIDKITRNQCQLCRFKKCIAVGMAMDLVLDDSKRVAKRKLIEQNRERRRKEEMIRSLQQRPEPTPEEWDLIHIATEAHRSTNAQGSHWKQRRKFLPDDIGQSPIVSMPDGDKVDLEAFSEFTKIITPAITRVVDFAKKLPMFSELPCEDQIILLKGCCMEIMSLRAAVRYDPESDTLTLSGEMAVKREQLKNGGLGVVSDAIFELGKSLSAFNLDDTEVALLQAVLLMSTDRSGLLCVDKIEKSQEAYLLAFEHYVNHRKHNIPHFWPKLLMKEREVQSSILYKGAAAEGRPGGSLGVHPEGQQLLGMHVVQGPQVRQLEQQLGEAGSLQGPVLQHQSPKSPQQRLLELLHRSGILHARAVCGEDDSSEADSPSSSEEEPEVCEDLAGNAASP
B2: Speckle-type POZ protein (Homo sapiens), O43791 (parent)
chain: B1 chain
partner: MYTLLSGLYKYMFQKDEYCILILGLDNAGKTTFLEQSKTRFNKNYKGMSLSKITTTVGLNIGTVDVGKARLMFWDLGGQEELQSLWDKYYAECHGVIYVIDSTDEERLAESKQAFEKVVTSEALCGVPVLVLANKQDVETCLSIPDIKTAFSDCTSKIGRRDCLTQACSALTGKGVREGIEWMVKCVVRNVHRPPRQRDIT
B3: Speckle-type POZ protein (Homo sapiens), O43791 (parent)
chain: B1 chain
partner: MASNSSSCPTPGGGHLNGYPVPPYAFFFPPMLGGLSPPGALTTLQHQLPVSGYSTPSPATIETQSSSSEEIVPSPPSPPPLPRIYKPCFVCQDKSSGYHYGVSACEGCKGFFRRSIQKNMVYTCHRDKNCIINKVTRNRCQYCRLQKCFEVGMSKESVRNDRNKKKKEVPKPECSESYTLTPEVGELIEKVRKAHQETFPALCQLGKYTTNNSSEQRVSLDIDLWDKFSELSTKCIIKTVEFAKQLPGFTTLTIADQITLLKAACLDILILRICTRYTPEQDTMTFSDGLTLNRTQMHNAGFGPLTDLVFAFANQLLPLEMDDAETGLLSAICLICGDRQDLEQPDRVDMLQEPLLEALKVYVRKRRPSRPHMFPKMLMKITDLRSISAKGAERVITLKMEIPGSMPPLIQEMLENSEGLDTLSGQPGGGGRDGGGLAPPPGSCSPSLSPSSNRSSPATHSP
B4: Speckle-type POZ protein (Homo sapiens), O43791 (parent)
chain: B1 chain
partner: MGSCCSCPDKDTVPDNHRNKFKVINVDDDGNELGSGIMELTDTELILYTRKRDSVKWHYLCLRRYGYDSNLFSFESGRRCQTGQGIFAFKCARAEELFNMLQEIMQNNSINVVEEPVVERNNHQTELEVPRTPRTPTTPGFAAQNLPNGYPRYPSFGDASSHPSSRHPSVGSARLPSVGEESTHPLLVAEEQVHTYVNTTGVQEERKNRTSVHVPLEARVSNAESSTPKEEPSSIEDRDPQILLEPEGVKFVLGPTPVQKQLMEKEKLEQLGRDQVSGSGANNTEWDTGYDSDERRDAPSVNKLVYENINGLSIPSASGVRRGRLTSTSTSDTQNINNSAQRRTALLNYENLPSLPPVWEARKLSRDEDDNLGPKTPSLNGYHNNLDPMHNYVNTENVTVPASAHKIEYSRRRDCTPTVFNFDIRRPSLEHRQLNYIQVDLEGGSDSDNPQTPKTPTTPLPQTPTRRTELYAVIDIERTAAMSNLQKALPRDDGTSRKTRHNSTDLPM
B5: Speckle-type POZ protein (Homo sapiens), O43791 (parent)
chain: B1 chain
partner: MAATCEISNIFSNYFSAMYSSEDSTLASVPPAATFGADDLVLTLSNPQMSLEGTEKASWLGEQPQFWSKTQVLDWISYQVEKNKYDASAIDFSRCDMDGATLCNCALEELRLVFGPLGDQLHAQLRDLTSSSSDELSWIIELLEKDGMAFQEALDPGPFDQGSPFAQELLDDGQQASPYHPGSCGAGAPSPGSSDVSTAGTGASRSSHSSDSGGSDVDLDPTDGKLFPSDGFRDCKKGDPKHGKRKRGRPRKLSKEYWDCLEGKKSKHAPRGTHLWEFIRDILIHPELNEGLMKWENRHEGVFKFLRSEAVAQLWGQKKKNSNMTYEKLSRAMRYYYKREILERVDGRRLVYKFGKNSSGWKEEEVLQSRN
B6: Speckle-type POZ protein (Homo sapiens), O43791 (parent)
chain: B1 chain
partner: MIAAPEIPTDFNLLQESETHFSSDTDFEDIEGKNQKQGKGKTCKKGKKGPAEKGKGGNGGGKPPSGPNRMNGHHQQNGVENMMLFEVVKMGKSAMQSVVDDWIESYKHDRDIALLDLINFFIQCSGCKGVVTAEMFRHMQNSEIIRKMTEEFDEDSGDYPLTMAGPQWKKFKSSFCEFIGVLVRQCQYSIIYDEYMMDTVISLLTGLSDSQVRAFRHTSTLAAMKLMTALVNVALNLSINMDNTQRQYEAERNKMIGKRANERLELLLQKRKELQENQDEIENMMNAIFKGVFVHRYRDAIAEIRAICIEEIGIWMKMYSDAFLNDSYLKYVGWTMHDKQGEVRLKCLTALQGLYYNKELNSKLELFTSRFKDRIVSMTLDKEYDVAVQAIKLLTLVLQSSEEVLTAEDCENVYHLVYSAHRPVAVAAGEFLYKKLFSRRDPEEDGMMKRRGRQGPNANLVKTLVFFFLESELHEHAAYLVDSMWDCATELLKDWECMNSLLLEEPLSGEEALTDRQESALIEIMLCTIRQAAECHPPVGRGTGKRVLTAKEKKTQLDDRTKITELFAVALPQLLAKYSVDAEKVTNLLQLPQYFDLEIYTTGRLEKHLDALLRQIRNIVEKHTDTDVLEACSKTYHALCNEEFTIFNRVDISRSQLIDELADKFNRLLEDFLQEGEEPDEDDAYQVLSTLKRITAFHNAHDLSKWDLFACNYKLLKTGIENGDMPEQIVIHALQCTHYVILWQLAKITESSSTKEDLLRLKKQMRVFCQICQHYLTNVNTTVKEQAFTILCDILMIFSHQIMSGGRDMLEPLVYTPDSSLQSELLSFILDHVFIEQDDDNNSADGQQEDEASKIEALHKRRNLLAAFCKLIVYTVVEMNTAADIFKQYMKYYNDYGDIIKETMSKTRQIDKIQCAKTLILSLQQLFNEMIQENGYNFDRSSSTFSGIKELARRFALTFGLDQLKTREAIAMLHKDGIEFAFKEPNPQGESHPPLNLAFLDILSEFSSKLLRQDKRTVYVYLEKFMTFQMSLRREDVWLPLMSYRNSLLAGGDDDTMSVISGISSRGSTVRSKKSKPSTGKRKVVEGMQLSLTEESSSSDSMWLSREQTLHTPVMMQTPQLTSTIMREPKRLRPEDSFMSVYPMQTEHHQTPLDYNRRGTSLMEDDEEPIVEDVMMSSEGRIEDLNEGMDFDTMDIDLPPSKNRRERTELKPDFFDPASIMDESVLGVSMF

Variants of: B1
Conditions: with tha_human THRA

Variant	effect of a mutation on the interaction
Y87C	with no effect

Variants of: B1
Conditions: with tha_human THRA
Remark: another data set of the same source

Variant	effect of a mutation on the interaction
F102C	with no effect

Variants of: B2
Conditions: with arfrp_human ARFRP1, Q13795

Variant	effect of a mutation on the interaction
Y87C	with no effect

Variants of: B3
Conditions: with rara_human RARA

Variant	effect of a mutation on the interaction
Y87C	with no effect

Variants of: B3
Conditions: with rara_human RARA
Remark: another data set of the same source

Variant	effect of a mutation on the interaction
F133V	with no effect

Variants of: B3
Conditions: with rara_human RARA
Remark: another data set of the same source

Variant	effect of a mutation on the interaction
F133L	with no effect

Variants of: B3
Conditions: with rara_human RARA
Remark: another data set of the same source

Variant	effect of a mutation on the interaction
F102C	with no effect

Variants of: B4
Conditions: with frs2_human FRS2, Q8WU20

Variant	effect of a mutation on the interaction
F133V	with no effect

Variants of: B4
Conditions: with frs2_human FRS2, Q8WU20
Remark: another data set of the same source

Variant	effect of a mutation on the interaction
F133L	with no effect

Variants of: B5
Conditions: with elf3_human ELF3, P78545

Variant	effect of a mutation on the interaction
Y87C	with no effect

Variants of: B6
Conditions: with stag2_human STAG2, Q8N3U4

Variant	effect of a mutation on the interaction
Y87C	with no effect
